In patent US20250154272A1 (Astellas, published 2025):
Numbering of substitutions follows the chain as printed. Names and notes keep the numbering of the source. Where two headings read alike, the source gives them in different places.

Tests used:
[1] = biological target: T1, human CD137-His tag protein (R&D Systems, 9220-4B) (human, UniProt Q07011 24-186); experiment: ELISA, human CD137-His tag protein immobilized on the plate, anti-human IgG Fc-HRP, A450-A570
T1 construct: Bought protein; not shown: His tag of the bought protein

[2] = biological target: T1, human CD137-His tag protein (R&D …); experiment: as above; remark: listed apart in the source
[3] = biological target: T2, human CLDN4 expressed on CHO-K1 cells (human, UniProt O14493 1-209); experiment: flow cytometry on human CLDN4 expressing CHO-K1, apparent KD
T2 construct: whole, on cells; also called human CLDN4 expressing CHO-K1
T2 sequence (looked up): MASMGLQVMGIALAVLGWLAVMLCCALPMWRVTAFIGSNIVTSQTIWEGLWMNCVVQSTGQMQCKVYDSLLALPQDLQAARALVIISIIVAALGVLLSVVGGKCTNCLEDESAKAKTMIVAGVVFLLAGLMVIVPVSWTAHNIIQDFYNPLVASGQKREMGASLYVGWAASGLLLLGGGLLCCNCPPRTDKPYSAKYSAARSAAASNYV

[4] = biological target: T1, human CD137-His tag protein (R&D …); experiment: SPR, Biacore T200, antibody captured on Protein A chip, CD137 as analyte
[5] = biological target: T3, monkey CD137-His tag-3×FLAG tag fusion protein (monkey); experiment: as above
T3 construct: Residues 1-183 are the encoded extracellular region as stated; also called Monkey CD137-His-3 × FLAG
T3 chain: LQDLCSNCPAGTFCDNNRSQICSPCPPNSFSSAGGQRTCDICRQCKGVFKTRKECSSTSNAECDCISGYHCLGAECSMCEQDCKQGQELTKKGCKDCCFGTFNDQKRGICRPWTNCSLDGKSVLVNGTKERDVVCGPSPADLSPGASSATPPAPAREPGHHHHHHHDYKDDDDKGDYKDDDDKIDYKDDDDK

[6] = biological target: T1, human CD137-His tag protein (R&D …); experiment: ELISA, human CD137-His tag protein immobilized on the plate, anti-human IgG Fc-HRP, A450-A570; remark: listed apart in the source
[7] = biological target: T4, human CD137-human Fc fusion protein (human, UniProt Q07011 24-186); experiment: ELISA of the purified antibody on coated plates
T4 construct: not shown: human IgG1 Fc of the pFUSE-hIgG1-Fc1 vector (InvivoGen, pfuse-hg1fc1)

[8] = biological target: T5, monkey CD137-human Fc fusion protein (monkey; human, UniProt Q07011 24-186); experiment: ELISA of the purified antibody on coated plates
T5 construct: not shown: human IgG1 Fc of the pFUSE-hIgG1-Fc1 vector (InvivoGen, pfuse-hg1fc1)
T5 chain: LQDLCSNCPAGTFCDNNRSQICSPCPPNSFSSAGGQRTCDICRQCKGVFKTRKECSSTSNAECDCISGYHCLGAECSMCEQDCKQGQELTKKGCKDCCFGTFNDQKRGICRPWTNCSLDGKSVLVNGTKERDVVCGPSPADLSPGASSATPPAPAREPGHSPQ

B1: anti-CLDN4 (hKM3900)/anti-CD137 scFv bispecific antibody hKM3900_tA2-32LH_S (bispecific antibody)
heavy (part 1 of 2): EVQLVQSGAEVKKPGASVKISCKASGYTFTDYYMNWVRQAPGQGLEWMGDVVPNNGVPTYNQKFKGRVTITADKSTSTAYMELRSLRSEDTAVYYCARPHYYYAGRSGAMDYWGQGTLVTVSS
heavy (part 2 of 2): QSVLTQPPSASGTPGQRVTISCSGSSSNIGSNTVNWYQQFPGTAPKLLIYSNNQRPSGVPDRFSGSKSGTSASLAISGLQSEDEADYYCAGWDDSLNGPVFGGGTKLTVLGGGGGSGGGGSGGGGSGGGGSQVQLQESGPGLVKPSETLSLTCTVSGGSISGYYWSWIRQPPGKGLEWIGYIYYSGFTNYNPSLKSRVTISVDTSKNQFSLKLSSVTAADTAVYYCTRDHSHYYYMDVWGQGTTVTVSS
light: DIQLTQSPSSLSASVGDRVTITCTASSTVSSTYLHWYQQKPGKAPKLLIYSTSNLASGVPSRFSGSGSGTDYTLTISSLQPEDFATYYCHQYHRSPPTFGQGTKLEIKRTVAAPSVFIFPPSDEQLKSGTASVVCLLNNFYPREAKVQWKVDNALQSGNSQESVTEQDSKDSTYSLSSTLTLSKADYEKHKVYACEVTHQGLSSPVTKSFNRGEC
notes: scFv at the heavy chain C-terminus; not shown: human IgG1 heavy chain constant region; mutation positions by EU index; GS linker
For B1, the “EC50 (read off the curve)” value [1] was about 10 ng/mL.

B2: anti-CLDN4 (hKM3900)/anti-CD137 scFv bispecific antibody hKM3900_tA2-73 (bispecific antibody)
heavy (part 1 of 2): B1 heavy (part 1 of 2)
heavy (part 2 of 2): QVQLQESGPGLVKPSETLSLTCTVSGGSISSYYWTWIRQPPGKCLELVGYIYYSGYTSYNPSLKSRVTISIDTSKNQFSLQLNSVTAADTAVYFCARDDYGGNGYYGVDVWGQGTTVTVSSGGGGSGGGGSGGGGSQSVLTQPPSASGTPGQRVTISCSGSSSNIGNNPVNWYRQLPGTAPKLLIYSNNQRPSGVPDRFSGSKSGTSASLAISGLQSEDEADYYCAAWDDSLNGWVFGCGTKLTVLG
light: B1 light
notes: as for B1
For B2, the “EC50 (read off the curve)” value [2] was about 10 ng/mL.

B3: anti-CLDN4 (hKM3900)/anti-CD137 scFv bispecific antibody hKM3900_tA2-73_S (bispecific antibody)
heavy (part 1 of 2): B1 heavy (part 1 of 2)
heavy (part 2 of 2): B2 heavy (part 2 of 2)
light: B1 light
notes: as for B1
For B3, the “EC50 (read off the curve)” value [1] was about 10 ng/mL.

B4: anti-CLDN4 (hKM3900)/anti-CD137 scFv bispecific antibody hKM3900_tA2-48 (bispecific antibody)
heavy (part 1 of 2): B1 heavy (part 1 of 2)
heavy (part 2 of 2): QVQLQESGPGLVKPSETLSLTCTVSGGSISSYYWSWIRQPPGKCLEWIGYIYYSGYTNYNPSLKSRVNISVDTSQNQFSLKLNSLTAADTAVYYCARTHSYYYGMDVWGQGTTVTVSSGGGGSGGGGSGGGGSQSVLTQPPSASGTPGQRVTISCSGSSSNIGNNPVNWYQQFPGTAPKLLIYSNNQRPSGVPDRFSGSKSGTSASLAISGLQSEDEADYYCEAWDDSLNGPVFGCGTKLTVLG
light: B1 light
notes: as for B1
With B4 the “EC50 (read off the curve)” value [2] was about 10 ng/mL.

B5: anti-CLDN4 (hKM3900)/anti-CD137 scFv bispecific antibody hKM3900_tA2-48_S (bispecific antibody)
heavy (part 1 of 2): B1 heavy (part 1 of 2)
heavy (part 2 of 2): B4 heavy (part 2 of 2)
light: B1 light
notes: as for B1
B5 was tested, and the “EC50 (read off the curve)” value [1] was about 10 ng/mL.

B6: anti-CLDN4 (hKM3900)/anti-CD137 scFv bispecific antibody hKM3900_tA2-32LH (bispecific antibody, human IgG1, kappa, L234A L235A)
heavy: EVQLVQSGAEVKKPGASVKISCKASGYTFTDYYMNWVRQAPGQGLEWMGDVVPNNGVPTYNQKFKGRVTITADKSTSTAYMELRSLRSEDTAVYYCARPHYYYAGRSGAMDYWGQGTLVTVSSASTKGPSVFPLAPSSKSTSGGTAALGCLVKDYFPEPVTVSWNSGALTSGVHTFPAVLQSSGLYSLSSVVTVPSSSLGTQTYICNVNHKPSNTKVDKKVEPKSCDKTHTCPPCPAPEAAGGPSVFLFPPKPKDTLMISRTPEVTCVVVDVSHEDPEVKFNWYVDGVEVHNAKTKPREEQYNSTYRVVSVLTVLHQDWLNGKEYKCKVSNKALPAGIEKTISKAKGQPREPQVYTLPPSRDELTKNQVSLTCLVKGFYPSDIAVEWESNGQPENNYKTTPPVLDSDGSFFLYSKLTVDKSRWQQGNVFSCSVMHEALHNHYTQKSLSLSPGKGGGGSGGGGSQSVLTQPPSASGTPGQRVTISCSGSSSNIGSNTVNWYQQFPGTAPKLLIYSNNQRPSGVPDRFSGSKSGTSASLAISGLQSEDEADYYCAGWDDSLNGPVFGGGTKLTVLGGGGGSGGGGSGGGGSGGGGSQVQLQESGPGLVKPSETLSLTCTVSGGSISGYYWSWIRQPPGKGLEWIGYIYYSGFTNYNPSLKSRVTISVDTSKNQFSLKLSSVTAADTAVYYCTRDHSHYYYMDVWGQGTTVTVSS
light: B1 light
notes: The heavy chain entry holds the hKM3900 heavy chain (L234A, L235A, P331G), the linker and the tA2-32LH scFv
Work on B6 yielded a Kd [3] of 10.8 nM, a Kd [4] of 5.84 nM and a koff [4] of 0.00219 s⁻¹. The kon [4] was 374000 M⁻¹ s⁻¹, the Kd [5] was 6.68 nM and the koff [5] was 0.00192 s⁻¹. The kon [5] was 288000 M⁻¹ s⁻¹, the “EC50 (read off the curve)” value [6] was about 8 ng/mL and the “EC50 (read off the curve)” value [2] was about 10 ng/mL.

B7: anti-CLDN4 (hKM3900)/anti-CD137 scFv bispecific antibody hKM3900_tA2-32 (bispecific antibody)
heavy (part 1 of 2): B1 heavy (part 1 of 2)
heavy (part 2 of 2): QVQLQESGPGLVKPSETLSLTCTVSGGSISGYYWSWIRQPPGKCLEWIGYIYYSGFTNYNPSLKSRVTISVDTSKNQFSLKLSSVTAADTAVYYCTRDHSHYYYMDVWGQGTTVTVSSGGGGSGGGGSGGGGSQSVLTQPPSASGTPGQRVTISCSGSSSNIGSNTVNWYQQFPGTAPKLLIYSNNQRPSGVPDRFSGSKSGTSASLAISGLQSEDEADYYCAGWDDSLNGPVFGCGTKLTVLG
light: B1 light
notes: as for B1
B7 was tested, and the “EC50 (read off the curve)” value [2] was about 10 ng/mL.

B8: anti-CLDN4 (hKM3900)/anti-CD137 scFv bispecific antibody hKM3900_tA2-32_S (bispecific antibody)
heavy (part 1 of 2): B1 heavy (part 1 of 2)
heavy (part 2 of 2): B7 heavy (part 2 of 2)
light: B1 light
notes: as for B1
In the case of B8, the “EC50 (read off the curve)” value [1] is reported as about 10 ng/mL.

B9: anti-CLDN4 (hKM3900)/anti-CD137 scFv bispecific antibody hKM3900_3-34-j6_S (bispecific antibody)
heavy (part 1 of 2): B1 heavy (part 1 of 2)
heavy (part 2 of 2): EVQLLESGGGLVQPGESLRLSCKAFGYTFTNHHINWVRQAPGKCLEWVGYINPYNDYTTFNDKFKDRFTLSVDKSKSTAYLQMNSLRAEDTAVYYCARTWGHWYFDLWGQGTLVTVSSGGGGSGGGGSGGGGSNIQMTQSPSSLSASVGDRVTITCRASQSVSSNLAWYQQKPGKAPKLLIYDSSTRATGVPSRFSGSGSGTDFTLTISSLQPEDFATYYCQQYNNWPPWTFGCGTKLEIKR
light: B1 light
notes: scFv at the heavy chain C-terminus; Fc mutation P331S with L234A and L235A; not shown: human IgG1 heavy chain constant region; mutation positions by EU index; GS linker
B9 was tested, and the “EC50 (read off the curve)” value [1] was about 10 ng/mL.

B10: humanized anti-CLDN4 (hKM3900) antibody (antibody, V domains shown)
VH: B1 heavy (part 1 of 2)
VL: DIQLTQSPSSLSASVGDRVTITCTASSTVSSTYLHWYQQKPGKAPKLLIYSTSNLASGVPSRFSGSGSGTDYTLTISSLQPEDFATYYCHQYHRSPPTFGQGTKLEIKR
With B10 the Kd [3] was 10.8 nM and the binding result [6] was “no binding (tested: 1000 ng/mL)”.

B11: anti-CD137 antibody 3-34 (antibody, V domains shown)
VH: QVQLQQSEAELVRPGASVKISCKAFGYTFTNHHINWVKQRPGQGLDWIGYINPYNDYTTFNRKFKDKATLTVHKSSSTAYMELSGLTSDDSAVYYCARTWGHWYFDLWGRGTVVTVSS
VL: EIVMTQSPATLSVSPGERATLSCRASQSVSSNLAWYQQKPGQAPRLLIYDSSTRATGIPARFSGSGSGTDFTLTISSLQSEDFAVYYCQQYNNWPPWTFGQGTKVEIKR
notes: Purified from a hybridoma derived from a VelocImmune mouse (human variable, mouse constant regions)
B11: binds [7]; binds [8].

B12: anti-CD137 antibody A2-73 (antibody, V domains shown)
VH: QVQLQESGPGLVKPSETLSLTCTVSGGSISSYYWTWIRQPPGKGLELVGYIYYSGYTSYNPSLKSRVTISIDTSKNQFSLQLNSVTAADTAVYFCARDDYGGNGYYGVDVWGQGTTVTVSS
VL: not shown
notes: Purified from a hybridoma derived from an AlivaMab mouse
B12: binds [7]; binds [8].

B13: anti-CD137 antibody A2-48 (antibody, V domains shown)
VH: QVQLQESGPGLVKPSETLSLTCTVSGGSISSYYWSWIRQPPGKGLEWIGYIYYSGYTNYNPSLKSRVNISVDTSQNQFSLKLNSLTAADTAVYYCARTHSYYYGMDVWGQGTTVTVSS
VL: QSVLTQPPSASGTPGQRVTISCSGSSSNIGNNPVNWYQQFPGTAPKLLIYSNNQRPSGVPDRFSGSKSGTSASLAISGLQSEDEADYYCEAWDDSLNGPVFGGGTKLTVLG
notes: as for B12
B13: binds [7]; binds [8].

B14: anti-CD137 antibody A2-32 (antibody, V domains shown)
VH: B13 VH with S31G, Y56F, N68T, Q75K, N83S, L85V, A96T, T98D, Y101H, G104Y
VL: not shown
notes: as for B12
B14: binds [7]; binds [8].
